In patent publication US7387779B2, “Anti-angiogenic proteins and fragments and methods of use thereof” (Beth Israel Deaconess Medical Center, priority 1998, dated 2008):

What was measured:
FLIP = FLIP protein levels in HUVEC; assay type: cell-based, human; details: one hour after treatment, persisting up to 24 hours
Method: FLIP Protein Levels. HUVEC cells were treated as for the ERK assay, supra, and harvested at 0, 1, 3, 6, and 24 hours. FLIP protein levels in serum treated HUVEC cells and serum+Canstatin-treated HUVEC cells were quantified using anti-FLIP antibody (Sata, M. et al., 1998, J. Biol. Chem. 273:33103-6) and normalized for protein loading using levels of vinculin and plotted as a percentage of the 0 hour time points.

HUVECs = assay: Endothelial cell migration, Boyden chamber; assay type: cell-based, human
Method: In the process of angiogenesis, endothelial cells not only proliferate but also migrate. Therefore, the effect of Canstatin on endothelial cell migration was assessed. The inhibitory effect of Canstatin and endostatin on FBS-induced chemotaxis was tested on human umbilical endothelial cells (HUVECs) using the Boyden chamber assay (Neuro-Probe, Inc., Cabin John, Md., USA). HUVECs cells were grown in M199 (Life Technologies/Gibco BRL, Gaithersburg, Md., USA) containing 10% FBS and 5 ng/ml DiC 18(3) living fluorescent stain (Molecular Probes, Inc., Eugene, Oreg., USA) overnight. After trypsinizing, washing and diluting cells in M199 containing 0.5% FBS, 60,000 cells were seeded in the upper chamber wells, together with or without Canstatin ([…]). M199 medium containing 2% FBS was placed in the lower chamber as a chemotactant. The cell-containing compartments were separated from the chemotactant with polycarbonate filters (Poretics Corp., Livermore, Calif., USA) of 8 μm pore size. […] Using a fluorescent high power field, several independent homogenous images were recorded by a digital SenSys™ camera operated with Image Processing Software PMIS (Roper Scientific/Photometrics, Tucson, Ariz., USA). Cells were counted by employing the OPTIMIZE 6.0 software-program (Media Cybernetics, Rochester, N.Y.) (Klemke, R. L. et al., 1994, J. Cell. Biol. 127:859-66).

WM-164 cells = assay: MTT cell viability assay; assay type: cell-based, human
Description: The MTT assay was used to evaluate cell viability in C-PAE endothelial cells and WM-164 melanoma cells after treatment with Tumstatin, Tum-1, Tum-2, Tum-3 and Tum-4. The results are shown in FIGS. 34A and 34B, which are a pair of graphs showing the effect of increasing concentration (x-axis) of Tumstatin, Tum-1, Tum-2, Tum-3 and Tum-4 on the cell viability (y-axis) of C-PAE cells (FIG. 34A) and WM-164 cells (FIG. 34B). Each point represents the mean ±the standard error of the mean for triplicate wells.

HPE cells = assay: Proliferation, methylene blue staining; assay type: cell-based, human
Method: In the methylene-blue staining method, 7000 cells were plated into each well of a 96-well plate, and treated as described above. Cells were then counted using the method of Oliver et al. (1989, J. Cell. Sci. 92:513-8). After 48 hours of treatment, all wells were washed with 100 μl of PBS, and the cells fixed with 10% formalin in neutral-buffered saline (Sigma Chemical Co., St. Louis, Mo., USA). The cells were then stained with 1% methylene blue (Sigma) in 0.01M borate buffer, pH 8.5. Wells were washed with 0.01M borate buffer, and the methylene blue extracted from the cells with 0.1N HCl/ethanol, and the absorbance measured in a microplate reader (Bio-Rad, Hercules, Calif., USA) at 655 nm. Polymyxin B (Sigma) at a final concentration of 5 μg/ml was used to inactivate endotoxin (Liu, S. et al., 1997, Clin. Biochem. 30:455-63).
Endothelial cell proliferation was performed by ^3H-thymidine incorporation or methylene blue staining as described above in Example 25. C-PAE cells (passages 2-4) were grown to confluence and kept contact inhibited for 48 hours. 786-O, PC-3 and WM-164 cells were used as non-endothelial controls, and were cultured as described in Example 25, above. HPE (human primary prostate epithelial cells) were cultured in keratinocyte-SFM supplemented with bovine pituitary and recombinant human EGF (Life Technologies/Gibco BRL, Gaithersburg, Md., USA). […]

HUVEC cells = assay: Cell surface labeling with biotinylated Tumstatin-44-131; assay type: binding, human; details: streptavidin-FITC
Method: Recombinant E. Coli-expressed Tumstatin-44-131 was biotinylated using Sulfo-NHS-LC-Biotin (Pierce Chem. Co). Tumstatin-44-131, in a buffer containing 10% DMSO and 5% D-mannitol, was incubated with 12 M excess of Sulfo-NHS-LC-Biotin overnight at 4° C. The biotinylated Tumstatin-44-131 precipitated out of solution during this incubation. The precipitate was washed twice with distilled water, resuspended in DMSO, and then mixed 1:1 with distilled water to obtain a final concentration of approximately 4 mg/ml. The biotinylated Tumstatin-44-131 was stored at 4° C.
For cell surface labeling, subconfluent HUVEC cells were removed from the flask using EDTA with light trypsinization, and then washed twice with DMEM containing 2% BSA. Cells were then resuspended in DMEM/BSA and incubated for 1 hour at 4° C. with either biotin-labeled Tumstatin-44-131 or the product of a mock biotin reaction run without Tumstatin-44-131. Cells were then washed twice with DMEM/BSA and then incubated with streptavidin-FITC (“Neutravidin-FITC”, Pierce Chem. Co) for thirty minutes at 4° C. Samples were then viewed on a Nikon Eclipse E600 fluorescent microscope and analyzed by flow cytometry.

PC-3 cells = assay: MTT cell viability assay; assay type: cell-based, human; details: 0-50 μg/ml
Method: Cell viability was measured by MTT assay, as described above.
The effects of Tumstatin-44-131 and Tum-5-125-C-A on cell viability of C-PAE cells were not seen in control PC-3 and DU-145 cells, as shown in FIGS. 52C and 52D. […] The activity of Tumstatin-44-131 is therefore specific to endothelial cells.

B1: Canstatin: NC1 domain of the α2 chain of Type IV collagen (SEQ ID NO:6) (protein, listed as Homo sapiens)
chain: VSIGYLLVKHSQTDQEPMCPVGMNKLWSGYSLLYFEGQEKAHNQDLGLAGSCLARFSTMPFLYCNPGDVCYYASRNDKSYWLSTTAPLPMMPVAEDEIKPYISRCSVCEAPAIAIAVHSQDVSIPHCPAGWRSLWIGYSFLMHTAAGDEGGGQSLVSPGSCLEDFRATPFIECNGGRGTCHYYANKYSFWLTTIPEQSFQGSPSADTLKAGLIRTHISRCQVCMKNL
FLIP protein levels (FLIP): decrease in FLIP protein levels
concentration with significant effect on migration (HUVECs): 10 ng/mL

B2: Tum-4: residues 181 to 244 of Tumstatin (SEQ ID NO:25) (protein)
chain: EFRASPFLECHGRGTCNYYSNSYSFWLASLNPERMFRKPIPSTVKAGELEKIISRCQVCMKKRH
modifications: Tum-4 (amino acids 181-244 of SEQ ID NO10)
effect on viability of WM-164 melanoma cells (WM-164 cells): decreased the viability

B3: Tumstatin: NC1 domain of the α3 chain of type IV collagen, residues 1-244 (SEQ ID NO:10) (protein, listed as Homo sapiens)
chain: GLKGKRGDSGSPATWTTRGFVFTRHSQTTAIPSCPEGTVPLYSGFSFLFVQGNQRAHGQDLGTLGSCLQRFTTMPFLFCNVNDVCNFASRNDYSYWLSTPALMPMNMAPITGRALEPYISRCTVCEGPAIAIAVHSQTTDIPPCPHGWISLWKGFSFIMFTSAGSEGTGQALASPGSCLEEFRASPFLECHGRGTCNYYSNSYSFWLASLNPERMFRKPIPSTVKAGELEKIISRCQVCMKKRH
effect on proliferation of HPE cells (HPE cells): no inhibitory effects

B4: Tumstatin-44-131: residues 44 to 131 of full-length Tumstatin (SEQ ID NO:33) (protein)
chain: FSFLFVQGNQRAHGQDLGTLGSCLQRFTTMPFLFCNVNDVCNFASRNDYSYWLSTPALMPMNMAPITGRALEPYISRCTVCEGPAIAI
modifications: Tumstatin-45-132 (amino acids 45-132 of SEQ ID NO10)
binding to the endothelial cell surface (HUVEC cells): binds the surface of endothelial cells
effect on viability of PC-3 cells (PC-3 cells): not seen
